From patent US20120028880A1, “VEGFR-1/NRP-1 TARGETING PEPTIDES” (priority 2007, published 2012)
Square brackets hold non-standard residues; d marks the D form. Ends that are not written are not given here.

Legend:
[1] = target: NRP-1; assay: competition of CPQPRPLC phage binding to immobilized NRP-1 by soluble peptide
[2] = target: VEGFR-1; assay: competition of CPQPRPLC phage binding to immobilized VEGFR-1 by soluble peptide
Sequence of VEGFR-1 (P17948 27-758): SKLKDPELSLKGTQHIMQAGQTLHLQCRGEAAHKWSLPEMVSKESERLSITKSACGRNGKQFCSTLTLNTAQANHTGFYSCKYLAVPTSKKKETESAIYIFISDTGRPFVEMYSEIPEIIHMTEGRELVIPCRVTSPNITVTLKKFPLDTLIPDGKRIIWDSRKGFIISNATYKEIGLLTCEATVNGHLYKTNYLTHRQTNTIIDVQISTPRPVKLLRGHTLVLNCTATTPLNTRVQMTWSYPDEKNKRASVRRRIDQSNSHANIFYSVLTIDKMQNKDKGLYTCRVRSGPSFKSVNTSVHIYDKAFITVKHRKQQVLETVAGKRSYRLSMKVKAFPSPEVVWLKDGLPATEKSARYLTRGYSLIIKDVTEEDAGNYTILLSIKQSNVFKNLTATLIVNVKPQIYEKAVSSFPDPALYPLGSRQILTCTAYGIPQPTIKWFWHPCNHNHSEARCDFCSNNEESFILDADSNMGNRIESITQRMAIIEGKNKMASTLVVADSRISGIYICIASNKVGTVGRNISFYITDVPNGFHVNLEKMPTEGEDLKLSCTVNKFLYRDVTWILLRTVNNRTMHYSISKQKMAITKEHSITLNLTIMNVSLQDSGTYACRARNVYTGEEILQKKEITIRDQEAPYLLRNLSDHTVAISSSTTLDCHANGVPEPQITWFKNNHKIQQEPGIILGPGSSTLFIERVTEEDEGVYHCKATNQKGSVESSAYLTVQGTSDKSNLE

Sequence of NRP-1 (O14786 22-856): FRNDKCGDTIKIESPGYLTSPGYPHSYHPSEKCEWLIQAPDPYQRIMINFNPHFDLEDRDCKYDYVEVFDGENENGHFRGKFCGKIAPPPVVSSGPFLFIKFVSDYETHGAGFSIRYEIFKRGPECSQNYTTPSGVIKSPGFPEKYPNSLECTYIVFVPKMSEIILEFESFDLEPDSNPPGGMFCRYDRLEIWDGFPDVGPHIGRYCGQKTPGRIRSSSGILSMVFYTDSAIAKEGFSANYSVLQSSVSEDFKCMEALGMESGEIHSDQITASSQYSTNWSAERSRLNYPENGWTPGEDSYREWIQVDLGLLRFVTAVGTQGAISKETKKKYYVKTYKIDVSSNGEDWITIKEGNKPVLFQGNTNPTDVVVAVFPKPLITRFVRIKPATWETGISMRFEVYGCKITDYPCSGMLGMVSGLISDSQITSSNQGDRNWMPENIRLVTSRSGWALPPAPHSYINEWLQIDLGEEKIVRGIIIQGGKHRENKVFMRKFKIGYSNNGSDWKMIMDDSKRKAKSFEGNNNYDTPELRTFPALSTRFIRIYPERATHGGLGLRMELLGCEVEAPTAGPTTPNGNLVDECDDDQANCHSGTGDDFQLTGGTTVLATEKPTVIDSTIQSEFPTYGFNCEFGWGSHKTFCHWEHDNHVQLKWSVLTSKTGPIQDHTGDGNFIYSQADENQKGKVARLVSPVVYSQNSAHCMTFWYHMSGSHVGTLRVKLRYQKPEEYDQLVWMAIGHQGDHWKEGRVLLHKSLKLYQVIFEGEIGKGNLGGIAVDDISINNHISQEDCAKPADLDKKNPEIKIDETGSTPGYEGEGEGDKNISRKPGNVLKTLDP

IC50 [1]: 1 to 10 pM
IC50 [2]: 1 to 10 pM
Substance: [dL]-[dP]-[dR]
